Measurements taken from IntAct's records for PubMed 29281743.

B1: Protein deacetylase HDAC6 (Homo sapiens), Q9UBN7 (parent)
chain: MTSTGQDSTTTRQRRSRQNPQSPPQDSSVTSKRNIKKGAVPRSIPNLAEVKKKGKMKKLGQAMEEDLIVGLQGMDLNLEAEALAGTGLVLDEQLNEFHCLWDDSFPEGPERLHAIKEQLIQEGLLDRCVSFQARFAEKEELMLVHSLEYIDLMETTQYMNEGELRVLADTYDSVYLHPNSYSCACLASGSVLRLVDAVLGAEIRNGMAIIRPPGHHAQHSLMDGYCMFNHVAVAARYAQQKHRIRRVLIVDWDVHHGQGTQFTFDQDPSVLYFSIHRYEQGRFWPHLKASNWSTTGFGQGQGYTINVPWNQVGMRDADYIAAFLHVLLPVALEFQPQLVLVAAGFDALQGDPKGEMAATPAGFAQLTHLLMGLAGGKLILSLEGGYNLRALAEGVSASLHTLLGDPCPMLESPGAPCRSAQASVSCALEALEPFWEVLVRSTETVERDNMEEDNVEESEEEGPWEPPVLPILTWPVLQSRTGLVYDQNMMNHCNLWDSHHPEVPQRILRIMCRLEELGLAGRCLTLTPRPATEAELLTCHSAEYVGHLRATEKMKTRELHRESSNFDSIYICPSTFACAQLATGAACRLVEAVLSGEVLNGAAVVRPPGHHAEQDAACGFCFFNSVAVAARHAQTISGHALRILIVDWDVHHGNGTQHMFEDDPSVLYVSLHRYDHGTFFPMGDEGASSQIGRAAGTGFTVNVAWNGPRMGDADYLAAWHRLVLPIAYEFNPELVLVSAGFDAARGDPLGGCQVSPEGYAHLTHLLMGLASGRIILILEGGYNLTSISESMAACTRSLLGDPPPLLTLPRPPLSGALASITETIQVHRRYWRSLRVMKVEDREGPSSSKLVTKKAPQPAKPRLAERMTTREKKVLEAGMGKVTSASFGEESTPGQTNSETAVVALTQDQPSEAATGGATLAQTISEAAIGGAMLGQTTSEEAVGGATPDQTTSEETVGGAILDQTTSEDAVGGATLGQTTSEEAVGGATLAQTTSEAAMEGATLDQTTSEEAPGGTELIQTPLASSTDHQTPPTSPVQGTTPQISPSTLIGSLRTLELGSESQGASESQAPGEENLLGEAAGGQDMADSMLMQGSRGLTDQAIFYAVTPLPWCPHLVAVCPIPAAGLDVTQPCGDCGTIQENWVCLSCYQVYCGRYINGHMLQHHGNSGHPLVLSYIDLSAWCYYCQAYVHHQALLDVKNIAHQNKFGEDMPHPH

Variants of: B1
Conditions: with myd88_human MYD88, Q99836
Chain of myd88_human MYD88, Q99836 (Q99836 whole entry): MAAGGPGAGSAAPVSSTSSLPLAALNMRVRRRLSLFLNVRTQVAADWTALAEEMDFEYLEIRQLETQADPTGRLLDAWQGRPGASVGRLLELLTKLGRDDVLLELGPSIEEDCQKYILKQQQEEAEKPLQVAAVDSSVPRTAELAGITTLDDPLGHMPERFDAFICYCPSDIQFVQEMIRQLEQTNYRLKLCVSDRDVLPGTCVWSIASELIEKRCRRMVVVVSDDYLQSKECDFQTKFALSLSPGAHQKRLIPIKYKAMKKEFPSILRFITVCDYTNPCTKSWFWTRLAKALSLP

Variant	effect of a mutation on the interaction
H216A;H611A	with no effect
